Target: recombinant TLR4 protein
Assay: ELISA: TLR4 coated on the plate, MD2 titrated from 133.3 to 0.065 nM, anti-MD2 detection, nonlinear regression

recombinant MD2 protein (ligand)
Kd: 18.4 nM
